Key:
[1] = molecular target: the molecule itself; assay: cross-linking
[2] = molecular target: the molecule itself; assay: AUC

Row | Protein | binding result [1] | stoichiometry N [2]
1 | human DJ-1 C106S, recombinant, tag-cleaved (natural protein) GSHMASKRALVILAKGAEEMETVIPVDVMRRAGIKVTVAGLAGKDPVQCSRDVVICPDASLEDAKKEGPYDVVVLPGGNLGAQNLSESAAVKEILKEQENRKGLIAAISAGPTALLAHEIGFGSKVTTHPLAKDKMMNGGHYTYSENRVEKDGLILTSRGPGTSFEFALAIVEALNGKEVAAQVKAPLVLKD | binds | –
2 | human DJ-1 E18D, recombinant, tag-cleaved (natural protein, uniformly 15N-labelled in the NMR experiment; fully reduced) GSHMASKRALVILAKGAEEMDTVIPVDVMRRAGIKVTVAGLAGKDPVQCSRDVVICPDASLEDAKKEGPYDVVVLPGGNLGAQNLSESAAVKEILKEQENRKGLIAAICAGPTALLAHEIGFGSKVTTHPLAKDKMMNGGHYTYSENRVEKDGLILTSRGPGTSFEFALAIVEALNGKEVAAQVKAPLVLKD | – | 2
3 | human DJ-1 E18Q, recombinant, tag-cleaved (natural protein, unlabelled preparation fully reduced; the 15N-labelled preparation of the NMR experiment 43% oxidised (Cys106-SO2-)) GSHMASKRALVILAKGAEEMQTVIPVDVMRRAGIKVTVAGLAGKDPVQCSRDVVICPDASLEDAKKEGPYDVVVLPGGNLGAQNLSESAAVKEILKEQENRKGLIAAICAGPTALLAHEIGFGSKVTTHPLAKDKMMNGGHYTYSENRVEKDGLILTSRGPGTSFEFALAIVEALNGKEVAAQVKAPLVLKD | – | 2
